From patent US8133978

How the values were obtained:
[1] = biological target: Human interleukin-18 (recombinant human IL-18) (human) (UniProt Q14116); test: cell-based or functional assay
[2] = biological target: Human interleukin-18 (recombinant human IL-18) (human) (UniProt Q14116); test: ELISA, IL-18 bp-Fc coated at 0.5 ug/ml, human IL-18 added at 100 ng/ml, antibody titrated, detection anti-rat IgG HRP, Abs 490 nm

Human interleukin-18 (recombinant human IL-18) (human), sequence (Q14116 37-193 limits assumed): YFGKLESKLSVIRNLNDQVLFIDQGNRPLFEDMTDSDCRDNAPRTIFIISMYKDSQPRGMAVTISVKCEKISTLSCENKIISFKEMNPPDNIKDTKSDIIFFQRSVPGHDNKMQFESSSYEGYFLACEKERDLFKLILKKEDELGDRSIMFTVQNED

IC50, LPS-stimulated IFNγ release, human PBMC, Donor 1 10% serum [1]: 0.023
IC50, LPS-stimulated IFNγ release, human PBMC, Donor 1 25% serum [1]: 0.069
IC50, LPS-stimulated IFNγ release, human PBMC, Donor 3 10% serum [1]: 0.033
IC50, LPS-stimulated IFNγ release, human PBMC, Donor 3 25% serum [1]: 0.086
complete inhibition of IL-18 mediated IFNγ release, LPS-stimulated human PBMC, 10% or 25% human serum [1]: > 1 µg/mL
inhibition of LPS-induced IFNγ production in human PBMC [1]: 1 µg/mL
EC50 (read off the curve) [2]: 0.04 µg/mL
B1: Parental rat antibody 2C10 (antibody, from another filing, V domains shown)
VH: EVQLQQSGAELVRPGTSVKLSCKVSGEISTGYYFHFVRRRPGQGLEWIGRIDPEDDSTKYAERFKDRATLTAQTSSNTAYLNLSSLTSEDTATYFCTTWRIYRDSSGRPFYVMDAWGQGASVTVSS
VL: DIQMTQSPASLSASLGETVSIECLASEDIYTYLTWYQQKPGKSPQLLIYGANKLQDGVPSRFSGSGSGTQYSLKISGIQPEDEGDYFCLQGSKFPLTFGSGTKLEIKR
